Like-named read-outs stand apart in the source and are kept apart here.

Holding throughout (experiment): enzyme inhibition kinetics
In test [1] the target is factor XIa catalytic domain R171A (human) (UniProt P03951).
Test [2] concerns the target factor XIa catalytic domain K175A (human).
Test [3] deals with factor XIa catalytic domain K170A (human) (UniProt P03951).
Test [4] concerns the target factor XIa catalytic domain K179A (human).
Test [5] concerns the target wild type recombinant factor XIa, full length (human).
For test [6], the target named is factor XIa catalytic domain R171A (human) (UniProt P03951). This is another data set of the same source.
Test [7] deals with factor XIa catalytic domain K175A (human). This is another data set of the same source.
Test [8] addresses factor XIa catalytic domain K170A (human) (UniProt P03951). The source holds these as a separate data set.
Test [9] addresses full-length factor XIa autolysis loop variant fXIa-144-149A (human).
The target in test [10] is factor XIa catalytic domain K179A (human). This is another data set of the same source.
For test [11], the target named is full-length factor XIa with a Gln substitution for Arg-37 (human).
Test [12] has as its target factor XIa catalytic domain R173A (human) (UniProt P03951).
The target in test [13] is factor XIa catalytic domain R171A (human) (UniProt P03951). The source holds these as a separate data set.
The target of test [14] is factor XIa catalytic domain K175A (human). This is another data set of the same source.
Test [15] has as its target factor XIa catalytic domain K170A (human) (UniProt P03951). This is another data set of the same source.
Test [16] addresses factor XIa catalytic domain K179A (human). The source holds these as a separate data set.
Test [17] concerns the target full-length factor XIa with a Gln substitution for Arg-37 (human). The source holds these as a separate data set.
Test [18] has as its target factor XIa catalytic domain R173A (human) (UniProt P03951). This is another data set of the same source.

With “antithrombin (from UniProt P01008 33-464) (natural protein)”, the k2 (second-order inhibition rate constant) in [1] is 18000 M⁻¹ s⁻¹; in test [2] it was 17000 M⁻¹ s⁻¹; in [3], 12000 M⁻¹ s⁻¹; in test [4] it was 50000 M⁻¹ s⁻¹; in [5], 223000 M⁻¹ s⁻¹; in test [6], 490 M⁻¹ s⁻¹. In addition, the k2 (second-order inhibition rate constant) is 180 M⁻¹ s⁻¹ in [7]; 230 M⁻¹ s⁻¹ in [8]; 250 M⁻¹ s⁻¹ in [10]; 1550 M⁻¹ s⁻¹ in [11]; 210 M⁻¹ s⁻¹ in test [12]; 1200 M⁻¹ s⁻¹ in test [13]. Moreover, the k2 (second-order inhibition rate constant) in [14] was 550 M⁻¹ s⁻¹; in test [15], 610 M⁻¹ s⁻¹; in test [16], 680 M⁻¹ s⁻¹; in test [17], 2620 M⁻¹ s⁻¹; in test [18] it was 560 M⁻¹ s⁻¹. In addition, the k2 (second-order inhibition rate constant), maximal in test [9] came out at 200000 M⁻¹ s⁻¹.

Source of the values: paper PMC2654577.
